Legend:
[1] = molecular target: T1, monophosphorylated tau peptide 1×P, TSPRHLSNVS(pS)TGSIDMVDSPC (human, phosphoserine (pS) at peptide position 11 (tau Ser413)); assay: SPR Biacore, 1×P peptide immobilized
T1 construct: also called 1xP; 1×P peptide
T1 peptide: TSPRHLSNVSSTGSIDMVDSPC
Protocol: Antibody binding to immobilized, phosphorylated Tau peptide was measured using a Series S Sensor Chip CM3 (GE Healthcare, BR100536). The chip was activated using an amine coupling kit, then 30 μg/mL phosphorylated Tau peptide (SEQ ID NO:75) in 10 mM sodium acetate, pH 5.0 was injected until 51 RU had been immobilized. The chip was blocked with ethanolamine. A negative control reference surface was prepared similarly, using non-phosphorylated Tau peptide ([…], SEQ ID NO:77). […] Each concentration and several buffer blanks were injected for 3 minutes at a flowrate of 45 μL/minute. The dissociation of the antibody was monitored for 15 minutes. The surface was regenerated with a 30 second injection of 100 mM hydrochloric acid (Fisher Scientific, SA56-1, Waltham, Mass.).
The data were processed and fit using Biacore™ M T200 Evaluation Software version 2.0 or Biacore™ 4000 Evaluation Software version 1.1 (GE Healthcare). The data were “double referenced” by subtracting the response from a negative control flowcell and subtracting the response from a buffer injection or the average response from two buffer injections. The data were then fit with the “1:1 Binding” model to determine the association rate constant, kₐ (M⁻¹s⁻¹, where “M” equals molar and “s” equals seconds) and the dissociation rate constant, kd (s⁻¹). […]

[2] = molecular target: T2, recombinant human phosphorylated Tau protein (80AWB) (human, UniProt P10636-8 1-441, limits assumed, phosphorylated; sites not stated); assay: SPR Biacore, phosphorylated Tau protein immobilized
T2 construct: also called Protein Immobilized
Protocol: Antibody binding to immobilized, phosphorylated Tau protein was measured using Series S Sensor Chips NTA (GE Healthcare, BR100034). The running buffer for the immobilization was 10 mM HEPES, 150 mM […], 0.05% v/v Surfactant P20, pH 7.4 (GE Healthcare, BR100671) and the flow rate was 10 μL/minute. 350 mM EDTA was injected for 1 minute to clean the chip, followed by a 2 minute injection of 0.5 mM NiCl₂ (GE Healthcare, NTA Reagent Kit) to prepare the chip to capture his-tagged protein. The chip was activated according to the manufacturer's instructions using an amine coupling kit (GE Healthcare, BR100633), then 300 nM phosphorylated Tau protein (80AWB) was injected until the desired amount of protein had been immobilized. The chip was blocked with ethanolamine from the amine coupling kit. Each experiment used multiple levels of immobilized phosphorylated Tau protein. The lowest level varied from 54 resonance units (RU) to 452 RU, and the highest level varied from 463 RU to 1020 RU. […] Each concentration and several buffer blanks were injected for 3 minutes at a flowrate of […]. The dissociation of the antibody was monitored for 15 minutes, then the surface was regenerated with a 30 second to 1 minute injection of 100 mM CAPS (Sigma, C6070), 1 M KCl (Sigma, P9541), 1 mM EDTA, 2 mM DTT, pH 10.5. […]

T2 sequence (P10636 other isoform, or with tags, fused parts or gaps limits assumed): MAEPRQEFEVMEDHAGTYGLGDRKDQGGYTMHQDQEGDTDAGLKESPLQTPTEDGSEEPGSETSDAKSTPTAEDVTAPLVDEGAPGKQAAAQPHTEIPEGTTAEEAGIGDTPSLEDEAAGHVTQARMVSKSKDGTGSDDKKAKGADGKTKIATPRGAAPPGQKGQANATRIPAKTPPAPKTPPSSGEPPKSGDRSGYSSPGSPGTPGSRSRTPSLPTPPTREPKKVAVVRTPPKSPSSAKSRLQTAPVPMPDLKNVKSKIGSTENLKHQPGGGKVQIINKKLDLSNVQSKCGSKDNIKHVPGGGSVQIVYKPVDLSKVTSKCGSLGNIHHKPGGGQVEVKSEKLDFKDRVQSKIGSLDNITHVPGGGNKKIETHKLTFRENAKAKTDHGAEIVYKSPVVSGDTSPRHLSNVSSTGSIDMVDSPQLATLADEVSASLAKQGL

B1: Humanized × [MAPT_H] mAb (Ta1505-VL46_G34S/VH11) IgG4 S228P/Kappa (CX) (antibody, V domains shown)
VH: EVQLVESGGGLVQPGGSLRLSCAASGFTFSSFALNWVRQAPGKGLEWVGHIRSKTNNYATFYAASVKDRFTVSRDDSQNTAYLQMNSLKTEDTATYYCVRRGPRDSWFGYWGQGTLVTVSS
VL: DIVMTQSPLSLPVTLGEPASISCRSSQSIVHSNSNTYLEWYLQKPGQSPQLLIYTVSNRFSGVPDRFSGSGSGTDFTLKISRVEAEDLGVYYCFQGSHLPLTFGGGTKVEIKR
notes: also called hu VL46/VH11 G34S IgG4
binding result [1]: no binding (tested: 0.37 nM to 30 nM antibody) | binding result [2]: no binding (tested: 0.37 nM to 30 nM antibody)

From patent US20180346564A1 (TEIJIN PHARMA, published 2018)
